Data from the nanobody polyreactivity screen of Harvey et al. (2022).

Test: yeast display, Sf9 membrane polyspecificity reagent, FACS + sequencing; frameworks hold sequencing errors
Method in brief: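 Galactose-induced (36–48 hours) yeast carrying a synthetic nanobody display library were exposed to 10% biotinylated, detergent-solubilized Sf9 membrane reagent at 4 °C for 1 hour. FACS followed streptavidin microbead enrichment, using low and high (top ~1%) gates for expression (anti-HA) and reagent binding (streptavidin). Colony PCR, MiSeq 2 × 250 sequencing and CDR-length filtering followed. Labels for polyreactivity reflect the gate of origin.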

Row | Sequence | polyreactivity (PSR sort gate)
1 | QVQLVESGGGLVQAGGSLRLSCAASGRIFLYAMGWYRQAPGKERELVAAINSGGSTNYADSVKGRFTISRDNAKNTVYLQMNSLKPEDTAVYYCAAEVLYWYRYYYWGQGTQVTVSS | low polyreactivity
2 | QVQLVESGGGLVQAGGSLRLSCAASGSTFQSYAMGWYRQAPGKERELVAAISTSDTDRTYYADSVKGRFTISRDNAKNTVYLQMNSLKPEDTAVYYCNADGYSHGDWYGYWGQGTQVTVSS | low polyreactivity
3 | QVQLVESGGGLVQAGGSLRLSCAASGFIFRYYARGWYRQGPGKERELVAAIDESGGSTYYADSVKGSFTISRDNSKKTVYLQMNSLKAVDTEVYYCAAYSNFYLNYGYGYWGQVTQVTVSS | high polyreactivity
4 | QVQLVESGGGLVQAGGSLRLSCAASGFTFEYYAMGWYRQAPGKERELVATITSGGSTYYADSVKGRFTISRDNAKNTVYLQMNSLKPDDTAVYYCITSSPWIEDYWGQGTQVTVSS | low polyreactivity
5 | QVQLVESGGGLVQAGGSLRLSCAASGRTFGYYAMGWYRQAPGKERELVAAISNSGGRTYYADSLKGRFTISRDNAKNTVYLQMNSLKPEDTAVYYCAAVVSYRFDYWGQGTQVTVSS | high polyreactivity
6 | QVQLVESVGCLVQARGSLRLSCAASGFTFPHYAMGWYRQAPGKERELVAVISWSGSSTYYADSVKGRFTISRDNAKNTVYLKMNSLKPVVNAVYYCNTRKLYQVDYDYWGQGSQVTVSS | high polyreactivity
7 | QVQLVESGGGIVQAGGSLRLSCAASGNTFHTYAMGWNRQAPVKERELVAAISSRGVGTYYADSVKGRFTISRDNAKNTVYLQMNSLKPEDTAVYYCAARHHPEYYYWGQGTQVTVSS | high polyreactivity
8 | QVQLVESGGGLVQAGGSLSLSCAASGLILRSYAMGWYRQAPWKERELVAAISGSGGRTYYADSVKGRFTISRDNAKNTVYLLMNSLKPEDTAVYYCAAGWTYRQNGYWGQGTQVTVSS | high polyreactivity
9 | QVQLVESGGGLVQAGGSLRLSCAASGRTFSYYAMGLYRQAPGKEREFVAAITWRGSSTYYADSVKGRFTISRDNAKNTVYLQMNSLKPEDTAVYYCNARATNVIWGRYDYWGQGTQVTVSS | high polyreactivity
10 | QVQLVESGGGLVQAGGSLRLSCAASGRTFGRYTMGWYRQAPGKERELVAAINWSGGRTYYADSVKGRFTISRDNAKNTVYLQMNSLKPEDTAVYYCNAVFANTSPEYEYWGQGTQVTVSS | high polyreactivity
11 | QVQLVESGGGLVQAGGSLRLSCAASGSIFDYYAMGWYRQAPGKERELVAAISSSGARTSYADSVKGRFTISRDNAKNTVYLQMNSLKPEDTAVYYCAAPYRSLKTGRYDYWGQGTQVTVSS | high polyreactivity
12 | QVQLVESGGGLVQAGGSLRLSCAASGLTFYYYAMGWYRQAPGKERELVAAITWSGASTYYADSVKGRFTISRDNAKNTVYLQMNSLKPEDTAVYYCNARVWGGVEFGYWGQGTQVTVSS | high polyreactivity
13 | QVQLGESGGGLVQAGGSLRLTCAASGFTFRGYAMGWYRQAPGKEWELVAANSRRGGSTYYADSVKGRFTISRDNAKYTVYLQMNSLKPEETAVYYCNAVGRFYFRFPPNNEYDYWGQGTQVTVSS | high polyreactivity
14 | QVQLQESGGGLVQAGGSLRLTCAASGSISRLDYMGWYRQASGKERELVAAIDNGSTTYYADSVKGRLTISRDNAKYTVYLQMNSLKPEDTAVYFCAAVRGRGGTHAYWGQGTQVTVSG | low polyreactivity
15 | QVQLVESGGGLVQSGRSLRLSCAASGSISVWYVMGWYRPAPGKEMELVAAITRSGGSTFYAYSVKGRFTISRDNAKNTVYLQMNSLKPEDTAVYYCAADGGVAWGYGYWGQGTQVTVSS | low polyreactivity
16 | QDQLVESGGGLVQAGGSLRLSCAASGSTFVKYAMGWYRQAAGTERELVASITKRGGSTYYADSVKGRFTISRDKAKNTVYLQMNSLKPEDTAVYYCNAARGLYNAPKYGSIGFDYWGQGTQVTESS | high polyreactivity
17 | QVQRVESGGGLVQAGGSLRLSCAASGSTFGIYDMGWYRQSPGKEMELVARITYSGGSRYYADSVKGRFTISRDNAKNTVYLQMNSLKPEDTAVYYCAARSWPHYFRYDYWGQGTQVTVSS | high polyreactivity
18 | QVQLVESGGGLVQAGGSLRLSCAASGRTIGLYGMGWYRQAPGKEREFDAAITRRGGSTYYADSVKGRFTISRDHAKNTVYLQMNSLKPEDTADYYCAAGYSSRYRGGLDYWGQGTQVTVSS | high polyreactivity
19 | QVQLVESGGGLVQAGGSLRLSCAASGRTFVWYAMGWYRHAPGKERELVAAISRSGGSTYYADSVKGRFTISRDNAKNTVYLQMNSLKPEDTAVYYCNAQWYVYDYYEFDYWGQGTQVTVSS | high polyreactivity
20 | QVQLVESGGGLVQAGGSLRLSCAASGRIFRLYAMGWYRQAPGKEREFVATITWIGGRTYYADSVKGRFTISRDNAKNTVYLQMNSLKPEDTAVYYCAADPGYTYEYWGQGTQVTVSS | low polyreactivity
21 | QVQLVESGGGLVQAGGSLRLSCAAYGSTFFRYAMGWYRQAPGKERELVAAISASTGSTYYADSVKGRFTISRDNAKNTVYLQMNSLKPEDTAVYYCNAELGYGTNDNWYDYWGKGTQVTVSS | low polyreactivity
22 | QDQLVESRGGLVQAGGSLRLSCAASGFTFYYYAMGWYRQAPGKERELVAAISSGGSTYYADSVKGRFTISRDNAKNTVYLQMNSLKPEDTAVYYCARLYRVGRYLFDVDSWGQGTQVTVSS | high polyreactivity

Row | Sequence | polyreactivity (PSR sort gate)
23 | QVQLVESGGGLVQAGGSLRLSCAASGFIFSIYTMGWYRQAPGKERELVAAISWSGGSTYYADSVKGRFTISRDNAKNTVYLQMNSLKPEDTAVYYCNRVQFSPVYRFREYDYWGQGSQVTVSS | high polyreactivity
24 | QVQLVESGGGLVQAGGSLRLSCAASGRTFGGYTMGWYRQAPGKEREFVAAITWSTGGSTYYADSVKGRFTISRDNAKNTVYLQMNSLKPEDTAVYYCAKDLYLHTYYAYPYRFGSGYYWGLGTQVTVSS | low polyreactivity
25 | QVQLLESGVGLVQAGGSLRLSCAASGSILYINALGWSRPAPGKARELVAAITYSGGSTYYADSVKGRFTISRDNAKKPVYLQMNSLKPEDTAVYYCAADAVVAGRYDGHAYWGQGTQVTVSS | low polyreactivity
26 | QVQLVESGGGLVQAGGSLRLSCAASGSIFNYNDMGWYRQAPGKERELVAAIDSSGTSTYYADSVKGRFTISRDNAKNTVYLQMTSLKPEDTAVYYCNADYRGWGYHMDYWGQGTQVTVSS | low polyreactivity
27 | QVQLVESGGGLVQAGGSLRLSCAASGSIFWPYAMGWYRQAPGKDRELVATITWTGGSTYYADSVKGRFTISRDNAKNTVYLQMNSLKPEDTAVYYCAAAGYYGYGYDYWGQGTQVTVSS | low polyreactivity
28 | QVQLVESGGGLVQAGGSLRLTCAASGFIFYNNAMGWYRQAPGKERELVASIRWSGASTYYADSVKGRFTISRDNAKNTVYLQMNSLKPEDTAVYYCAARQSRLNSYFSHRFWRYDYWGQGTQVTVSS | high polyreactivity
29 | QVQLVESGGGLVQAGGSLRLSCAASGSTFYTYAMGWYRQAPGKERELVAAITSGGSTYYADSVKGRFTISRDNAKNTVYLQMNSLKPEDTAVYYCAARPYPHSAYEGDYWGRGTQVTVSS | low polyreactivity
30 | QVQLVESGGGIVQAGGSLRLSCAASGIIFRFYAMGWYRQAPGKERELVARIRSRGGSTYYADSVKGRFTISRDNAKNTVYLQMNSLKPEDTAVYYCAAGAGYPYYWGQGTQVTVSS | high polyreactivity
31 | QVQLVESGGGLVQAGGSLRISCAASGFTFWYYVMGWYRQAPGKERELVAAISSGGSTYYADSVKGRFTISRDNAKNTVYLQINSLKPEDTAVYYCAASYRSATRQFDYWGQGTQVTVSS | low polyreactivity
32 | QVQLVESGGGLVQAGGSLRLSCAASGFIFGTYAMGWYRQAPGKERELVAAISVGGGSTYYADSVKGRFTISRDKAKNTVYLQMNSLKPEDTADYYCAAVQLYQKHQITYVAHEYWGQGTQVTVSS | low polyreactivity
33 | QVQLVESGGGLVQAGGSLRLSCAASGFTYRYYTMGLYRQAPGKERELVAAINTSGAGTYYADSVKGRFTISRDNAKNTVYLQMNSLKPEDTAVYYCAATWYGLDYNYWGQGTQVTVSS | high polyreactivity
34 | QVQLVESGGGLVQAGGSLRLSCAASGSTLDYNDMGWYRQAPGKEREFVAAIRSNDGSTYYADSVKGRFTISRDNAKKTVYLQMNSLKPEDTAVYYCNKDVWDGYDWPEFDYLGQGTQVTVSS | low polyreactivity
35 | QVQLVESGRGLVQAGGSLRLSCAASGIILGRYAKGWYRQAPGKERELVAVITGDGSTTYADSVKGRFTISRDNAKNTVYLQMNSLKPEDTAVYYCNAAVEGSLNGYEYWGQGTQVTVSS | low polyreactivity
36 | QVHLVESGGGLDQAGGSLRLSCAASGSIYGPYAMGWYRQAPGKERELVAAIRSGGSTNYADSVKGRFTITRDNAKNTVYLLMTSLKPEDTAVYYCAAEYWGYPYDYWGQGTQVTVSS | low polyreactivity
37 | QVQLVESGGGLVQAGGSLRLSCAASGRTFYNAMGWYRQAPGKERELVAAITTGGGTKYADSVKGRFTISRDNAKNTVYLQMNSLKPEDTAVYYCNAYRQYRYDYWGQGTQVTVSS | low polyreactivity
38 | QVQLVESGGGLVQAGGSLRLSCDASGSIFGVNAMGWYRQAPGKERELVAAINNGGSTKYADSVKGRFTISRDNAKNTVYLQMNSLKPEDTAVYYCAARSWTHYFRFDYWGQGTQVTVSS | high polyreactivity
39 | QVQLVESGGGLVQAGGSLRLSCAASGRTFGPYAMGWYRQAPGKERELVAVISGRGTSTYYADSVKGRFTISRDNAKNTVYLQMNSMKPEDTAVYYCNADYGSWYWGFDYWGQGTQVTVSS | low polyreactivity
40 | QVQLVESGGGLVQAGGSLRLSCAASGRTFASNVMGWYRQAPGKERELVAAISRRGGSTYYADSVKGRFTISRDNAKNTVYLQMNSLKPEDTAVYYCNAVLYHLTYDYWGQGTQVTVSS | high polyreactivity
41 | QVQLVESGGGLVQAGGSLRLSCAASGRIFDPHAMGWYRPAPGKERELVASSTRRGGSTYYADSVKGRFTSSRDIAKNNVYLQMNSLKPEDTSVYYCARPNLLSGDYWGQGTQVTVSS | high polyreactivity
42 | QVQLVESGGGLVQAGGSLRLSCAASGSTFVRYSMGWYRQAPGKERDLVAAITSSGGSTYYADSVKGRFTISRDNAKNSVYFQMNSLKPEDTAVYDFAAARYPYRYIYNYWGQGTQVTVSS | high polyreactivity
43 | QVQLVESGGGLVQAGGSLRLSCAASGFTFAAYAMGWYRQAPVKERELVAAITNGGSTKYADSVKGRFTISRDNAKNTVYVQMNSLKPEDTSVYYCNADGFDLNVTNVSALEYDSWGQGTQVTVSS | low polyreactivity
